Data as given in article PMC6710095.
Where two headings read alike, the source gives them in different places.

Key:
[1] = target: C-terminal fragment of TraF/VirB10 in the D1 complex (residues 1-129 removed) (plasmid pKM101); assay: negative stain electron microscopy
[2] = target: TraF/VirB10 with C-terminal Strep-tag (TraF/VirB10 C-ST) (plasmid pKM101)
[3] = target: TraN/VirB7 (pKM101-encoded T4SS lipoprotein) (plasmid pKM101); assay: negative stain electron microscopy
[4] = target: TraF/VirB10 with C-terminal Strep-tag (TraF/VirB10 C-ST) (plasmid pKM101); assay: negative stain electron microscopy
[5] = target: TraO/VirB9 (pKM101-encoded T4SS) (plasmid pKM101); assay: negative stain electron microscopy

Substance: C-terminal fragment of TraF/VirB10 in the D1 complex (residues 1-129 removed) (domain or fragment)
- stoichiometry N [1]: 14

Substance: TraN/VirB7 (pKM101-encoded T4SS lipoprotein) (natural protein)
- stoichiometry N [2]: 1
- stoichiometry N [3]: 14

Substance: TraF/VirB10 with C-terminal Strep-tag (TraF/VirB10 C-ST) (natural protein)
- stoichiometry N [4]: 14

Substance: TraO/VirB9 (pKM101-encoded T4SS) (natural protein)
- stoichiometry N [2]: 1
- stoichiometry N [5]: 14
